Article PMC11765882, “A High-Resolution Crystallographic Study of Cytochrome c6: Structural Basis for Electron Transfer in Cyanobacterial Photosynthesis” (International Journal of Molecular Sciences, 2025)

Target: the molecule itself
Assay: native gel or EMSA; blue native PAGE (4-13%) of the purified protein; dimer and monomer

Protein | stoichiometry N
Cytochrome c6 from Synechocystis sp. PCC 6803 (natural protein, heme covalently linked to two cysteine residues via thioether bonds (CXXCH motif); iron axially coordinated by methionine and histidine, Cytochrome c6, Synechocystis sp; cloned into pET22b with an N-terminal pelB signal peptide; Crystallised only in the reduced form (3 mM beta-mercaptoethanol); The printed residue numbers and the MALDI-TOF mass (9449.297 with heme) fit the mature protein without the native signal peptide) ADLAHGKAIFAGNCAACHNGGLNAINPSKTLKMADLEANGKNSVAAIVAQITNGNGAMPGFKGRISDSDMEDVAAYVLDQAEKGW | 2
Cytochrome c6 from Synechococcus elongatus sp. PCC 7942 (natural protein, Synechococcus elongatus PCC 7942, heme covalently linked to two cysteine residues via thioether bonds (CXXCH motif); iron axially coordinated by methionine and histidine, cloned into pET22b with an N-terminal pelB signal peptide; Used reduced (3 mM beta-mercaptoethanol) and oxidised (40-fold molar excess of potassium ferricyanide); The printed residue numbers (Asp2, His5, Ala16) and the MALDI-TOF mass (9714.504 with heme) fit the mature protein without the native signal peptide) ADLAHGGQVFSANCAACHLGGRNVVNPAKTLQKADLDQYGMASIEAITTQVTNGKGAMPAFGSKLSADDIADVASYVLDQSEKGWQG | 2
